Assay results: US20040006777A1 (HSC RESEARCH AND DEVELOPMENT LIMITED PARTNERSHIP, published 2004)

What was measured:
[1] = target: T1, p116 Jak3 (endogenous, human thymocytes) (human, UniProt P52333 1-1124, limits assumed); assay: western blot of Lyp immunoprecipitates from anti-CD3 stimulated human thymocytes
T1 sequence (looked up): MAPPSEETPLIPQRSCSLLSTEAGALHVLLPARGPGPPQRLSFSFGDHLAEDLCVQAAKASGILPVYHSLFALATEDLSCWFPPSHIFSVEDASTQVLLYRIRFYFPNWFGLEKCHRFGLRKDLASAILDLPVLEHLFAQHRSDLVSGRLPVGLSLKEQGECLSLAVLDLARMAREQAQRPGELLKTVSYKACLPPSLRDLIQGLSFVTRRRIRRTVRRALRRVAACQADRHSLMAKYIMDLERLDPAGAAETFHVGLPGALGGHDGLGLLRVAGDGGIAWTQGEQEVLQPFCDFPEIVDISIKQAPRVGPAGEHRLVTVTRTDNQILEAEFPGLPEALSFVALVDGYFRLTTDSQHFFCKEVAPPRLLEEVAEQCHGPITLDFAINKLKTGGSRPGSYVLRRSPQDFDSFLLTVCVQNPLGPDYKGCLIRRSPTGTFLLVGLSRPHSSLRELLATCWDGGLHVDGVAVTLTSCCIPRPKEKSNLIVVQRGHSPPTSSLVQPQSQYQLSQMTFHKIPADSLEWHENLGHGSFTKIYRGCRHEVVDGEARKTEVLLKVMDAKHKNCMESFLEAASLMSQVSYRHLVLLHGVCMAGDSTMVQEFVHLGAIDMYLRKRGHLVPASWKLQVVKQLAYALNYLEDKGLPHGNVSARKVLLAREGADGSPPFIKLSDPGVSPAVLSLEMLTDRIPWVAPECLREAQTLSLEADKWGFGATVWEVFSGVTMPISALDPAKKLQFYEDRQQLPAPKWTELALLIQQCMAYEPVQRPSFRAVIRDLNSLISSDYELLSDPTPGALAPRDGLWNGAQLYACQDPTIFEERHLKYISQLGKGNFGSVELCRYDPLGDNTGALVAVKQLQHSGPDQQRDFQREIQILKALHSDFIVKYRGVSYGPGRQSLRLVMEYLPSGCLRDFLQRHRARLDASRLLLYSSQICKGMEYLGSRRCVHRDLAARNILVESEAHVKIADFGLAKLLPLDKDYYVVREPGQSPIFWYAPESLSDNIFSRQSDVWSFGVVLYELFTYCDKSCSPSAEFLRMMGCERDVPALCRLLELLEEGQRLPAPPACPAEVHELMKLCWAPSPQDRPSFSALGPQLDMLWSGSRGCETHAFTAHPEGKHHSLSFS
Experimental: (§1) (A) Lyp immunoprecipitates from thymocytes (80×10⁶ cells) stimulated with anti-CD3 were blotted with antiphsophotyrosine. […] Lyp protein loading was quantitated by anti-Lyp western blot after stripping. […] (C) Lyp1 was transfected into COS-7 cells and Cbl immunoprecipitates prepared from these and untransfected cells. Western blotting was performed with Lyp antibodies. The position of Lyp is indicted by an arrow. Cbl immunoprecipitates were also prepared and blotted with anti-phosphotyrosine (D), and then anti-Cbl after stripping.
(§2) One of the earliest events following TCR stimulation of T cells is the induction of tyrosine phosphorylation. In order to determine whether Lyp played a role in TCR signalling, human thymocytes were stimulated with anti-CD3 for various periods of time, Lyp immunoprecipitated and blotted with anti-phosphotyrosine. […] Once activated, the phosphorylation level of this protein remained constant over a period of 20 minutes. […] This interaction was also observed in the mature T cell line Jurkat (not shown) and further confirmed by transfection of Lyp1 into COS-7 cells and examining its association with the endogenous Cbl protein (FIG. 13C).

p125Fak = p125Fak (human, UniProt Q05397 2-1052, limits assumed); assay: as above
p125Fak, sequence (Q05397 2-1052 limits assumed): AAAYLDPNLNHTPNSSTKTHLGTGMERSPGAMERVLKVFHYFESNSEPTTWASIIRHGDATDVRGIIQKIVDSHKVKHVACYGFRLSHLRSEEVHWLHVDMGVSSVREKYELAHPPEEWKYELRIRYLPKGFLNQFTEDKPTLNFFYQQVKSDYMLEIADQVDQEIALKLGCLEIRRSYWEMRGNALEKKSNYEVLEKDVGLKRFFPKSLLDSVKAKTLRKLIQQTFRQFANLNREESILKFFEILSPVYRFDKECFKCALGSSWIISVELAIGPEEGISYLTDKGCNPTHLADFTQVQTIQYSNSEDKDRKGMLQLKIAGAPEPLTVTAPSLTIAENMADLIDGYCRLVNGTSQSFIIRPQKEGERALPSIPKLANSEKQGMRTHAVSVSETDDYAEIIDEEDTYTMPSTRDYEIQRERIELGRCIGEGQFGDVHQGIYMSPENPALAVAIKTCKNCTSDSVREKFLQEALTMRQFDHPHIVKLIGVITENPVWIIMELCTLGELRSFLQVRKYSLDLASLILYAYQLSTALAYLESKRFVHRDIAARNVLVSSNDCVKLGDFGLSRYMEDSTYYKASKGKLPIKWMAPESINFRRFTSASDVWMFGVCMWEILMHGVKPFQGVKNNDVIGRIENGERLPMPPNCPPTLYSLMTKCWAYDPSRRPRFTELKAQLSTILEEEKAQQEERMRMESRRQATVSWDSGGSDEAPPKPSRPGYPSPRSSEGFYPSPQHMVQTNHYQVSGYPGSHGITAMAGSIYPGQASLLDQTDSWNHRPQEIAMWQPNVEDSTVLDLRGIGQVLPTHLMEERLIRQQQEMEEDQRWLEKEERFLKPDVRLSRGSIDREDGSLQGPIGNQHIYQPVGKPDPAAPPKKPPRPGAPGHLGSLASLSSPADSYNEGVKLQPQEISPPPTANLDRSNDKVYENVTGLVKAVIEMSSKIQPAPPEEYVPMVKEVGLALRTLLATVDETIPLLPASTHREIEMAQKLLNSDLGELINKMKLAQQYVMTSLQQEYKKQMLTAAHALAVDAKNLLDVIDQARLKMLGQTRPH
Experimental: as §1, §2

- binding result [1]: no binding
- binding result (p125Fak): no binding
B1: Lyp1 (human lymphoid protein tyrosine phosphatase, 105 kD) (enzyme)
chain: MDQREILQKFLDEAQSKKITKEEFANEFLKLKRQSTKYKADKTYPTTVAENAKNIKKNRYKDILPYDYSRVELSLITSDEDSSYINANFIKGVYGPKAYIATQGPLSTTLLDFWRMIWEYSVLIIVMACMEYEMGKKKCERYWAEPGEMQLEFGPFSVSCEAEKRKSDYIIRTLKVKFNSETRTIYQFHYKNWPDHDVPSSIDPILELIWDVRCYQEDDSVPICIHCSAGCGRTGVICAIVDYTWMLLKDGIIPENFSVFSLIREMRTQRPSLVQTQEQYELVYNAVLELFKRQMDVIRDKHSGTESQAKHCIPEKNHTLQADSYSPNLPKSTTKAAKMMNQQRTKMEIKESSSFDFRTSEISAKEELVLHPAKSSTSFDFLELNYSFDKNADTTMKWQTKAFPIVGEPLQKHQSLDLGSLLFEGCSNSKPVNAAGRYFNSKVPITRTKSTPFELIQQRETKEVDSKENFSYLESQPHDSCFVEMQAQKVMHVSSAELNYSLPYDSKHQIRNASNVKHHDSSALGVYSYIPLVENPYFSSWPPSGTSSKMSLDLPEKQDGTVFPSSLLPTSSTSLFSYYNSHSSLSLNSPTNISSLLNQESAVLATAPRIDDEIPPPLPVRTPESFIVVEEAGEFSPNVPKSLSSAVKVKIGTSLEWGGTSEPKKFDDSVILRPSKSVKLRSPKSELHQDRSSPPPPLPERTLESFFLADEDCMQAQSIETYSTSYPDTMENSTSSKQTLKTPGKSFTRSKSLKILRNMKKSICNSCPPNKPAESVQSNNSSSFLNFGFANRFSKPKGPRNPPPTWNI
notes: also called native Lyp1; pcDNA3-Lyp1
